Measurements published in patent US20200102388A1 (NEW YORK UNIVERSITY, published 2020).
Like-named read-outs stand apart in the source and are kept apart here.

How the values were obtained:
[1] = biological target: T1, γδ1 TCR containing the delta1C chain (human, biotinylated in vitro using recombinant BirA (AviTag)); assay: SPR (Pioneer, OneStep): biotinylated TCR immobilised on a neutravidin-loaded Avicap chip, IgG flowed; apparent KD
T1 construct: also called biotinylated TCR sample; gamma/delta1 TCR; not shown: Fc portion of mouse IgG; AviTag; His6 tag; TCR gamma chain fused to mouse IgG Fc

[2] = biological target: T2, heterodimer containing Delta1C and gamma 3, Fc-fusion protein (human); assay: ELISA on gamma/delta TCR-Fc heterodimers immobilised on a microtiter plate, probed with the clone named over the panel (control panel: No Phage)
T2 construct: the assay paragraph says only gamma 3; also called Delta1C/Gamma3; not shown: Fc portion of mouse IgG; AviTag; His6 tag

[3] = biological target: T3, heterodimer containing Delta1C and gamma 8, Fc-fusion protein (human); assay: as above
T3 construct: the assay paragraph says only gamma 8; also called Delta1C/Gamma8; not shown: Fc portion of mouse IgG; AviTag; His6 tag

[4] = biological target: T1, γδ1 TCR containing the delta1C chain; assay: SPR (Pioneer, OneStep): biotinylated TCR immobilised on a neutravidin-loaded Avicap chip, IgG flowed; apparent KD; remark: listed apart in the source
[5] = biological target: T2, heterodimer containing Delta1C and …; assay: ELISA on gamma/delta TCR-Fc heterodimers immobilised on a microtiter plate, probed with the clone named over the panel (control panel: No Phage); remark: listed apart in the source
[6] = biological target: T3, heterodimer containing Delta1C and …; assay: as above; remark: listed apart in the source
[7] = biological target: T1, γδ1 TCR containing the delta1C chain; assay: SPR (Pioneer, OneStep): biotinylated TCR immobilised on a neutravidin-loaded Avicap chip, IgG flowed; apparent KD; remark: listed apart in the source
[8] = biological target: T1, γδ1 TCR containing the delta1C chain; assay: as above; remark: listed apart in the source
[9] = biological target: T2, heterodimer containing Delta1C and …; assay: ELISA on gamma/delta TCR-Fc heterodimers immobilised on a microtiter plate, probed with the clone named over the panel (control panel: No Phage); remark: listed apart in the source
[10] = biological target: T3, heterodimer containing Delta1C and …; assay: as above; remark: listed apart in the source
[11] = biological target: T1, γδ1 TCR containing the delta1C chain; assay: SPR (Pioneer, OneStep): biotinylated TCR immobilised on a neutravidin-loaded Avicap chip, IgG flowed; apparent KD; remark: listed apart in the source
[12] = biological target: T2, heterodimer containing Delta1C and …; assay: ELISA on gamma/delta TCR-Fc heterodimers immobilised on a microtiter plate, probed with the clone named over the panel (control panel: No Phage); remark: listed apart in the source
[13] = biological target: T3, heterodimer containing Delta1C and …; assay: as above; remark: listed apart in the source
[14] = biological target: T2, heterodimer containing Delta1C and …; assay: as above; remark: listed apart in the source
[15] = biological target: T3, heterodimer containing Delta1C and …; assay: as above; remark: listed apart in the source
[16] = biological target: T1, γδ1 TCR containing the delta1C chain; assay: SPR (Pioneer, OneStep): biotinylated TCR immobilised on a neutravidin-loaded Avicap chip, IgG flowed; apparent KD; remark: listed apart in the source
[17] = biological target: T2, heterodimer containing Delta1C and …; assay: ELISA on gamma/delta TCR-Fc heterodimers immobilised on a microtiter plate, probed with the clone named over the panel (control panel: No Phage); remark: listed apart in the source
[18] = biological target: T3, heterodimer containing Delta1C and …; assay: as above; remark: listed apart in the source

T1 sequence (main, as listed by the source): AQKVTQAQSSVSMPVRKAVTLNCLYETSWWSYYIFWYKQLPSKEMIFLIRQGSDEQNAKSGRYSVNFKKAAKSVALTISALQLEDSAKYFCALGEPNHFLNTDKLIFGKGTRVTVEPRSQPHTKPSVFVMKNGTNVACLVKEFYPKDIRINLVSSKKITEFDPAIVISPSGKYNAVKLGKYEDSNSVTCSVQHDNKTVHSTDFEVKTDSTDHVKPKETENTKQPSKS
T3 sequence (V domain, as listed by the source, chain 1 of 2): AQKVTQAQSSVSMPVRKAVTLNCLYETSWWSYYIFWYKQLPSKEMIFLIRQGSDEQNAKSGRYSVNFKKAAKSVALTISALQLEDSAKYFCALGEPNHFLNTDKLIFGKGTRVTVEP
T3 sequence (V domain, as listed by the source, chain 2 of 2): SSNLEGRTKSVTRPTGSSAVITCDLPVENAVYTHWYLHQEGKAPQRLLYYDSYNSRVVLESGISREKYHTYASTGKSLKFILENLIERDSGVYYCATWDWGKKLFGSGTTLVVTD
T2 sequence (V domain, as listed by the source, chain 1 of 2): as the sequence (V domain, as listed by the source, chain 1 of 2) above
T2 sequence (V domain, as listed by the source, chain 2 of 2): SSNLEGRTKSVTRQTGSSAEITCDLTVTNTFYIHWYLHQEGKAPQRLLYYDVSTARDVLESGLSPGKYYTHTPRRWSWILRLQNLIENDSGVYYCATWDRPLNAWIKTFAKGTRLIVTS

B1: Delta 1-1 (antibody, V domains shown)
VH: EVQLVESGGGLVQPGGSLRLSCAASGFTVSSSSIHWVRQAPGKGLEWVASISSYYGYTSYADSVKGRFTISADTSKNTAYLQMNSLRAEDTAVYYCAREEWMSYWYWPRYYYYGMDYWGQGTLVTVSS
VL: DIQMTQSPSSLSASVGDRVTITCRASQSVSSAVAWYQQKPGKAPKLLIYSASSLYSGVPSRFSGSRSGTDFTLTISSLQPEDFATYYCQQAALMSPITFGQGTKVEIKR
notes: Tested by SPR as human IgG made in ExpiCHO cells
For B1, which Kd [1] is on record?
Its Kd is 0.01 µM.

Does B1 bind [2]?
Result: no binding

Does B1 bind [3]?
Result: no binding

B2: Delta 1-6 (antibody, V domains shown)
VH: EVQLVESGGGLVQPGGSLRLSCAASGFTVYSSSIHWVRQAPGKGLEWVASISPYSGSTSYADSVKGRFTISADTSKNTAYLQMNSLRAEDTAVYYCARMWYLSGWWTGDALDYWGQGTLVTVSS
VL: DIQMTQSPSSLSASVGDRVTITCRASQSVSSAVAWYQQKPGKAPKLLIYSASSLYSGVPSRFSGSRSGTDFTLTISSLQPEDFATYYCQQGYYSALITFGQGTKVEIKR
With B2 as the binder, how does the Kd [4] read?
The Kd was 0.011 µM.

Does B2 bind [5]?
Result: no binding

Does B2 bind [6]?
Result: no binding

B3: Delta 1-3 (antibody, V domains shown)
VH: EVQLVESGGGLVQPGGSLRLSCAASGFTLSSSSIHWVRQAPGKGLEWVASIYSSSGYTSYADSVKGRFTISADTSKNTAYLQMNSLRAEDTAVYYCARGLWSVWYYQFYSSMQGMDYWGQGTLVTVSS
VL: DIQMTQSPSSLSASVGDRVTITCRASQSVSSAVAWYQQKPGKAPKLLIYSASSLYSGVPSRFSGSRSGTDFTLTISSLQPEDFATYYCQQGYEYPLTFGQGTKVEIKR
notes: Tested by SPR as human IgG
For B3, which Kd [7] is on record?
The Kd was 0.05 µM.

B4: Delta 1-17 (antibody, V domains shown)
VH: EVQLVESGGGLVQPGGSLRLSCAASGFTVSSSSIHWVRQAPGKGLEWVASIYSSSGYTYYADSVKGRFTISADTSKNTAYLQMNSLRAEDTAVYYCARDPGMYYWYYSGSAYEGYGLDYWGQGTLVTVSS
VL: DIQMTQSPSSLSASVGDRVTITCRASQSVSSAVAWYQQKPGKAPKLLIYSASSLYSGVPSRFSGSRSGTDFTLTISSLQPEDFATYYCQQSGDDLITFGQGTKVEIKR
notes: also called Delta1-17 IgG
What does the source list for B4?
Kd [8]: 0.007 µM; binding result [9]: binds; binding result [10]: binds

B5: Delta 1-10 (antibody, V domains shown)
VH: EVQLVESGGGLVQPGGSLRLSCAASGFTFSSSSIHWVRQAPGKGLEWVASISSSSGSTSYADSVKGRFTISADTSKNTAYLQMNSLRAEDTAVYYCARSMVWYWGLNGYEEYAGGMDYWGQGTLVTVSS
VL: DIQMTQSPSSLSASVGDRVTITCRASQSVSSAVAWYQQKPGKAPKLLIYSASSLYSGVPSRFSGSRSGTDFTLTISSLQPEDFATYYCQQSSSSLITFGQGTKVEIKR
B5 was tested. Which Kd [11] did it give?
Its Kd is 0.024 µM.

Does B5 bind [12]?
Result: no binding

Does B5 bind [13]?
Result: no binding

B6: Delta 1-15 (antibody, V domains shown)
VH: EVQLVESGGGLVQPGGSLRLSCAASGFTFSSSSIHWVRQAPGKGLEWVASISSSSGSTSYADSVKGRFTISADTSKNTAYLQMNSLRAEDTAVYYCARYSWIYDSWWSGWAMDYWGQGTLVTVSS
VL: DIQMTQSPSSLSASVGDRVTITCRASQSVSSAVAWYQQKPGKAPKLLIYSASSLYSGVPSRFSGSRSGTDFTLTISSLQPEDFATYYCQQSSSSLITFGQGTKVEIKR
Does B6 bind [14]?
Result: binds

Does B6 bind [15]?
Result: no binding

B7: Delta 1-13 (antibody, V domains shown)
VH: EVQLVESGGGLVQPGGSLRLSCAASGFTFSSSSIHWVRQAPGKGLEWVASISSSSGSTSYADSVKGRFTISADTSKNTAYLQMNSLRAEDTAVYYCARTTSYIDEYFGFGWYAMDYWGQGTLVTVSS
VL: DIQMTQSPSSLSASVGDRVTITCRASQSVSSAVAWYQQKPGKAPKLLIYSASSLYSGVPSRFSGSRSGTDFTLTISSLQPEDFATYYCQQSSSSLITFGQGTKVEIKR
How did the Kd [16] turn out when B7 was run?
The Kd was 0.053 µM.

B8: Delta 1-8 (antibody, V domains shown)
VH: EVQLVESGGGLVQPGGSLRLSCAASGFTVSSSSIHWVRQAPGKGLEWVASIYSSSGYTYYADSVKGRFTISADTSKNTAYLQMNSLRAEDTAVYYCARPYYWYPYYYWSGGWEYAAFDYWGQGTLVTVSS
VL: DIQMTQSPSSLSASVGDRVTITCRASQSVSSAVAWYQQKPGKAPKLLIYSASSLYSGVPSRFSGSRSGTDFTLTISSLQPEDFATYYCQQYGEYPITFGQGTKVEIKR
Does B8 bind [17]?
Result: binds

Does B8 bind [18]?
Result: binds
